Measurements as given in the nanobody polyreactivity screen of Harvey et al. (2022).

experiment: yeast display, Sf9 membrane polyspecificity reagent, FACS + sequencing; frameworks hold sequencing errors
Outline: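 A nanobody's polyreactivity label depends on the gate it was sorted from. Yeast display cells were stained with 10% biotinylated, detergent-solubilized Sf9 membrane reagent for 1 hour at 4 °C, enriched on streptavidin microbeads and sorted by FACS. The low and high (top ~1%) gates were set on anti-HA fluorescence for expression and streptavidin fluorescence for reagent binding.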

Sequence	polyreactivity (PSR sort gate)
QVQLVESGGGLVQAGGSLRLSCAASGSTFGGNAMGWYRQAPGKEREFVAAISYSGGSTYYADSVKGRFTISRDNAKNTVYLQMNSLKPEDTAVYYCAATGEPPVFRNGYWGQGTQVTVSS	low polyreactivity
QVQLVESGGGLVQAGGSLRLSCAASGSTFGGNAMGWYRQAPGKERELVAAISSTGGSTYYADSVKGRFTISRDNAKNTVYLQMNSLKPEDTAVYYCAALYHWTYDYWGQGTQVTVSS	low polyreactivity
QVQLVESGGGLVQAGGSLRLSCAASGSTFGGNGMGWYRQAPGKEREFVATITWRSGSTYYADSVKGRFTISRDNAKNSVYLQMNSLKPEDSAVYYCAKYTSSRRNTWYYYWGQGTQVTVSS	high polyreactivity
QVQLVESGGGLVQAGGSLRLSCAASGSTFGGYAMGWNRQAPGKEREWVAAISQSGTRTYYADSVKGRFTISRDNAKNTVYLQMNSLKPEDTAVYYCAAVKRFRKYDYWGQGTQVTVSS	high polyreactivity
QVQLVESGGGLVQAGGSLRLSCAASGSTFGGYAMGWYRPAPGKERELVAAISGSGVRTYYADSVKGRFTISRDNAKNTVYLQMNSLKPEDTAVYYCAKRVRYPGDRYYYWGQGTQVTVSS	high polyreactivity
QVQLVESGGGLVQAGGSLRLSCAASGSTFGGYAMGWYRQAPGKERELVAAISGSGVRTYYADSVKGRFTISRDNAKNTVYLQMNSLKPEDTAVYYCAKRVRYPGDRYYYWGQGTQVTVSS	high polyreactivity
QVQLVESGGGLVQAGGSLRLSCAASGSTFGGYAMGWYRQAPGKERELVAAISKSGGSTYYADSVKGRFTISRDNAKNTVYLQMNSLKPEDTAVYYCNAPYKRSPYNYWGQGTQVTVSS	high polyreactivity
QVQLVESGGGLVQAGGSLRLSCAASGSTFGGYTMGGYRQAPGKERELVADITSSGSTNYADSLKGRFTISRDNAKNSVYLQMNSLKPEDTAVYYCAVRTYPGRFWYWGVDMVYWGQGTQVTVSS	low polyreactivity
QVQLVESGGGLVQAGGSLRLSCAASGSTFGGYTMGWYRQAPGKERELVADITSSGSTNYADSLKGRFTISRDNAKNTVYLQMNSLKPEDTAVYYCAVRTYPGRFWYWGVDMDYWGQGTQVTVSS	low polyreactivity
QVQLVESGGGLVQAGGSLRLSCAASGSTFGHNAMGWYRQAPGKERELVAAIDSGDGTTYADSVKGRFTISRDNAKNTVYLQMNSLKPEDSAVYYWNVDLTTVGLWYYYRPGYDFWGQGTQVTVSS	low polyreactivity
QVQLVESGGGLVQAGGSLRLSCAASGSTFGHYAMGWSRQAPGKERELVARITSDDSTSYADSVKGRFTISRDNAKNTVYLQMNSLKPEDTAVDYCAARYYSYSWHPARYQGRYSWGQGTQVTVSS	high polyreactivity
QVQLVESGGGLVQAGGSLRLSCAASGSTFGHYAMGWYIQAPGKERELVAGITDTDNHELRRLCEGRFTISRDNAKNTVYLQMNSLKPEDTAVYYCNADDTYYPLCGITGYDYWGQGTQVTVSS	low polyreactivity
QVQLVESGGGLVQAGGSLRLSCAASGSTFGHYAMGWYRPAPGKERELVAGITDTDNHELRRLCEGRFTISRDNAKNTVYLQMNSLKPEDTAVYYCIADDTYYPLGGITGYDDWGQGTQVTVSS	low polyreactivity
QVQLVESGGGLVQAGGSLRLSCAASGSTFGINAMGWYRQAPGKERELVAAISRRGGSTYYADSVKGRFTISRDNAKNSVYLQMNSLKPEDTAVYYCAARYRNHQYDYWGQGTQVTVSS	high polyreactivity
QVQLVESGGGLVQAGGSLRLSCAASGSTFGINAMGWYRQAPGKERELVASITRRGGSTYYADSVKGRFTISRDNAKNTVYLQMNSLKPEDTAVYYCNKTYRYGTPLYDYWGQGTQVTVSS	high polyreactivity
QVQLVESGGGLVQAGGSLRLSCAASGSTFGINDMGWSRQAPGKEREFVAAISSTTDSTRYADSVKGRFTISRDNAKNTVYLQMNSLKPEDTAVYYCAAAPQFTFGVGYWGQGTQVTVSS	low polyreactivity
QVQLVESGGGLVQAGGSLRLSCAASGSTFGIYAMGWYRQAPGKERELVAAIRKNGGSTYYADSVKGRFTISRDNAKNTVYLQMNSLKPEDTAVYYCNADYWIYPSYDYWGQGTQVTVSS	low polyreactivity
QVQLVESGGGLVQAGGSLRLSCAASGSTFGIYAMGWYRQAPGKERELVAAISRSGDSTYYADSVKGRFTISRDNAKNTVYLQMNSLKPEDTAVYYCAADSFRLRYWAVTTHRVQYDYWGQGTQVTVSS	low polyreactivity
QVQLVESGGGLVQAGGSLRLSCAASGSTFGKNALGWYRQAPGKERELVAAITRRGGSTNYADSVKGRFTISRDNAKNTVYLQMNSLKPEDTAVYYCNAGYGYGYPKYDYWGQGTQVTVSS	high polyreactivity
QVQLVESGGGLVQAGGSLRLSCAASGSTFGKNAMGWYRPAPGKERELVAAITSSGGRTYYADSVKGRFTISRDNAKNTVYLQMNSLKPEDTAVYYCNAVTRRRSLGPWPVEYDYWGQGTQVTVSS	high polyreactivity
QVQLVESGGGLVQAGGSLRLSCAASGSTFGKYAMGWYRQAPGKERELVASISRSGASTYYADSVKGRFTISRDNAKNTVYLQMNSLKPEDTAVYYCNKARNPEGYWRYDYWGQGTQVTVSS	high polyreactivity
QVQLVESGGGLVQAGGSLRLSCAASGSTFGKYAMGWYRQAPGKERELVATITVSGGNTNYADSVKGRFTISRDNAKNTVYLQMNSLKPEDTAVYYCNAGGRYHAPSGDYWGQGTQVTVSS	low polyreactivity

Sequence	polyreactivity (PSR sort gate)
QVQLVESGGGLVQAGGSLRLSCAASGSTFGLNTMGWYRQAPGKERELVAGITWSGGTTYYADSVKGRFTISRDNAKNTVYLQMNSLKPEDTAVSYCAAAVSDHYWYSRAYYYWGQGTQVTVSS	high polyreactivity
QVQLVESGGGLVQAGGSLRLSCAASGSTFGLYVMGWYRQAPGQERELVAAISRRGGSTYYADSVKGRFTSSRDNAKNTVYLQMNSLKPEDTAVYYCNTYYRGGPYDVAYDYWGQGTQVTVSS	high polyreactivity
QVQLVESGGGLVQAGGSLRLSCAASGSTFGNNAMGWYRQAPGKERELVATIDDTTVSTNYADSVKGRFTISRDNAKNSVYLQMNSLKPEDTAVYYCAADDVDGSPYDYWGQGTQVTVSS	low polyreactivity
QVQLVESGGGLVQAGGSLRLSCAASGSTFGPNAMGWYRQAPGKERELVAAINTRGGSTYYADSVKGRFTISRDNAKNTVYLQMNSLKPEDTAVYYCAAEYVVWYLDRFNYWGQGTQVTVSS	high polyreactivity
QVQLVESGGGLVQAGGSLRLSCAASGSTFGPNAMGWYRQAPGNERELVAAITWSGDSTYYADSVKGRFTISRDNAKNTVYLQMNSLKPEDTAVYYCNTDRNVWYAGYDYWGQGTQVSVSS	low polyreactivity
QVQLVESGGGLVQAGGSLRLSCAASGSTFGPYAMGWYRPAPGKERELVADITSSDGSTYYADSVKGRFTISRDNAKNSVYFHLNSLKREDTAVYYCNADYRYIWTYWGWTIYDYWGQGTQVTVSS	high polyreactivity
QVQLVESGGGLVQAGGSLRLSCAASGSTFGPYAMGWYRQAHGKVRELVAAITESGDSTYYADSVKGRFTISRDNAKNTVYLQMNSLKPEDTAVYYCAAEFYGDKMDYWGQGTQVTVSS	low polyreactivity
QVQLVESGGGLVQAGGSLRLSCAASGSTFGPYAMGWYRQAPGKERELVAAITKSGGRTYYADSVKGRFTISRDNAKNTVYLQMNSLKPEDTAVYYCAAYGSVGLEYWGQGTQVTVSS	high polyreactivity
QVQLVESGGGLVQAGGSLRLSCAASGSTFGPYAMGWYRQAPGKERELVAAITSSGGTTYYADSVKGRFTISRDNAKNTVYLQMNSLKPEDTAVYYCNTRRHGWKGVAYDYWGQGTQVTVSS	low polyreactivity
QVQLVESGGGLVQAGGSLRLSCAASGSTFGPYAMGWYRQAPGKERELVATITRNGGSTYYADSVKGRFTISRDNAKNTVYLQMNILKPEDTAVYYCNAEGRWSSFTQRMDYWGQGTQVTVSS	low polyreactivity
QVQLVESGGGLVQAGGSLRLSCAASGSTFGPYTMGWYRQAAGKERELVAAITGGGDSTYYADSVKGRFTISRDNAKNTVYLQMNSLKPEDTAVYYCAAKKPTTRMGYWGQGTQVTVSS	low polyreactivity
QVQLVESGGGLVQAGGSLRLSCAASGSTFGQYAMGWYRQAPGKERELVAAISTSGGSTYYADSVKGRFTISRDNAKNTVYLQMNSLKPEDTAVYYCAVDRLPSYPTGFDYWGQGTQVTVSS	high polyreactivity
QVQLVESGGGLVQAGGSLRLSCAASGSTFGRKAMAWYRQAPGKEMELVAVISKSGGSTYYADTVKGRFTISRDNAKNTVYLQMNSLKPEDTAVYYCAASLKYRRRMGYWGQGTQVTVSS	high polyreactivity
QVQLVESGGGLVQAGGSLRLSCAASGSTFGRNAMGWYRQAPGKERELVAAISKTGGSTYYADSVKGRFTISRDTAKNTVYLQMNSLKPEDTAVYYCAARIRGFRTYYYWGQGTQVTVSS	high polyreactivity
QVQLVESGGGLVQAGGSLRLSCAASGSTFGRYAMGWSRQAPGKEWELVAAISGRGGSTYYADSVKGRFTISRDNAKNTVYLQMNSLKPEDTAVYYCAVRYYSARYWYGYDYWGQGTQVTVSS	high polyreactivity
QVQLVESGGGLVQAGGSLRLSCAASGSTFGRYAMGWYRQAPGKARELVAAITTSGGRTRYADSVKGRFTISRDNAKNTVYLQMNSLKPEDTAVYYCAASGAQGPDYDYWGQGTQVTVSS	low polyreactivity
QVQLVESGGGLVQAGGSLRLSCAASGSTFGRYAMGWYRQAPGKERELVAAISARGGSTYYADSVKGRFTISRDNAKNTVYLQMNSLKPEDTAVYYCNVDYLLHGGRFDYWGQGTQVTVSS	high polyreactivity
QVQLVESGGGLVQAGGSLRLSCAASGSTFGRYAMGWYRQAPGKEREMVAAISQRGGSTYYADSVKGRFTISRDYAKNTVYLQMNSLKPEDTAVYYCAAYYTRIRNHYGYWGQGTQVTVSS	high polyreactivity
QVQLVESGGGLVQAGGSLRLSCAASGSTFGSNAMGWYRQAPGKERELVAAIRWSGGSTYYADSVKGRFTISRDNAKNTVYLQMNSLKPEDTAVYYCAGSFFQYNRRFNYWVQGTQVTVSS	high polyreactivity
QVQLVESGGGLVQAGGSLRLSCAASGSTFGSNAMGWYRQAPGKERELVAAIRWSGGSTYYADSVKGRFTISRDNAKNTVYLQMNSLKPEDTAVYYFAGYYFQYNRRFNYWGQGTQVTVSS	high polyreactivity
QVQLVESGGGLVQAGGSLRLSCAASGSTFGSNDMGWYRPAPGKERELVAGITWSGGSTFYADSVKGRFTISRDTAKNTVYLQMNSLKPEDTAVYYCAVSTEVNRYHAKYDYWGQGTQVTVSS	low polyreactivity
